Experimental data as given in the RNAGym collection of RNA variant scans (doi:10.7554/elife.80360).

B1: Hairpin Ribozyme (parent)
chain: GUCCUCUUUCACGUGCGCGUGAAAGAGAGAAGUGAACCAGAGAAACACACGUUGUGGUAUAUUACCUGGUA
B2: Hammerhead Ribozyme (parent)
chain: ACCGGAUGUGCUUUCCGGUCUGAUGAGUCCGUGAGGACGAAACAG

Variants of: B1
Test: self-cleavage, relative activity (ratio to wild type); higher = more cleavage; co-transcriptional
Variant G1C C10U has a self-cleavage of 0.241. Variant G1C C10G has a self-cleavage of 0.247. With G1C A35G the self-cleavage was 0.121. G1A G57A showed a self-cleavage of 0.177. Work on G1A G57U yielded a self-cleavage of 0.179. For G1A A49G, the self-cleavage was 0.233. Variant G1A C16G has a self-cleavage of 0.169. Work on G1A G68C yielded a self-cleavage of 0.181. Variant G1C A28G has a self-cleavage of 0.167. G1A C46G showed a self-cleavage of 0.104. Variant G1C C6U has a self-cleavage of 0.249. For G1C C6G, the self-cleavage was 0.249. Work on G1C A39C yielded a self-cleavage of 0.225. In the case of G1C A39G, the self-cleavage is reported as 0.146. Variant G1C A22G has a self-cleavage of 0.255. Work on G1A A28C yielded a self-cleavage of 0.175. Variant G1A U5C has a self-cleavage of 0.269. Variant G1A A59U has a self-cleavage of 0.286. Work on G1A U67C yielded a self-cleavage of 0.178. G1A C18U showed a self-cleavage of 0.256. G1A A23U gave a self-cleavage of 0.163. With G1A C3G the self-cleavage was 0.342. G1A C37U showed a self-cleavage of 0.196. Variant G1A A47U has a self-cleavage of 0.257. G1A G27C gave a self-cleavage of 0.213. G1A A36U gave a self-cleavage of 0.0776. For G1A U63C, the self-cleavage was 0.166. Variant G1A G15C has a self-cleavage of 0.287. For G1C A59U, the self-cleavage was 0.114. Variant G1C A59G has a self-cleavage of 0.0434. Work on G1C C16G yielded a self-cleavage of 0.238. Work on G1A G56C yielded a self-cleavage of 0.282. Variant G1A G56U has a self-cleavage of 0.0996. G1A G51A showed a self-cleavage of 0.21. G1A A41G showed a self-cleavage of 0.0682. G1A A35G showed a self-cleavage of 0.16. Variant G1A A35C has a self-cleavage of 0.109. Variant G1C A30G has a self-cleavage of 0.322. Work on G1C A24G yielded a self-cleavage of 0.129. G1A U33G gave a self-cleavage of 0.119. With G1A G32U the self-cleavage was 0.184. G1A G32A gave a self-cleavage of 0.196. G1C A23U showed a self-cleavage of 0.197. With G1C A23C the self-cleavage was 0.103. G1A G25C showed a self-cleavage of 0.209. Work on G1A U20A yielded a self-cleavage of 0.213. In the case of G1A G34C, the self-cleavage is reported as 0.09. With G1A G34U the self-cleavage was 0.189. Variant G1C C37U has a self-cleavage of 0.177. With G1A C12G the self-cleavage was 0.263. G1A C12A gave a self-cleavage of 0.131. Variant G1A G42U has a self-cleavage of 0.0643. G1A C48G gave a self-cleavage of 0.201. In the case of G1A A61G, the self-cleavage is reported as 0.132. With G1A A61C the self-cleavage was 0.175. Work on G1A G54C yielded a self-cleavage of 0.193. In the case of G1C C3A, the self-cleavage is reported as 0.257. For G1A C4G, the self-cleavage was 0.149. For G1A C4A, the self-cleavage was 0.248. Work on G1A C38A yielded a self-cleavage of 0.111. In the case of G1A C10A, the self-cleavage is reported as 0.175. G1A G69U showed a self-cleavage of 0.235. Work on G1A C50G yielded a self-cleavage of 0.277. With G1A C50A the self-cleavage was 0.127. With G1C A26C the self-cleavage was 0.14. In the case of G1C A26G, the self-cleavage is reported as 0.239. Variant G1C A41G has a self-cleavage of 0.129. G1C A45G showed a self-cleavage of 0.0824. G1C A45C showed a self-cleavage of 0. For G1A C6A, the self-cleavage was 0.197. Work on G1A U52G yielded a self-cleavage of 0.0884. For G1A C66G, the self-cleavage was 0.225. G1C A44C gave a self-cleavage of 0.125. G1C A36C gave a self-cleavage of 0.107. Variant G1C A36G has a self-cleavage of 0.105. Work on G1C A11U yielded a self-cleavage of 0.179. In the case of G1C A47U, the self-cleavage is reported as 0.152. Work on G1C A47G yielded a self-cleavage of 0.13. Work on G1C yielded a self-cleavage of 0.203. G1A showed a self-cleavage of 0.185.

Variants of: B2
Test: as above
C2U G8U showed a self-cleavage of 0.948. In the case of C11A A41U, the self-cleavage is reported as 0.273. For G4A C29A, the self-cleavage was 0.374.
